The results in this text go back to publication PMC9916714, “NMR Analysis Suggests Synergy between the RRM2 and the Carboxy-Terminal Segment of Human La Protein in the Recognition and Interaction with HCV IRES”.

Test in all cases: ITC; 50 mM KPi pH 7, 25 C; 50 mM KPi pH 7; ITC at 25 C (50 uM protein in cell, 500 uM RNA in syringe); NMR at 298 K, 0.1 mM protein, 90% H2O/10% D2O
What all share (conditions): protein: recombinant; tags: IMAC tag (pET20b+; tag not specified)
In general terms: Isothermal titration calorimetry measures the heat released or taken up as one component is titrated into another.

The target of one data set is T1, La RRM2-Cter (Homo sapiens, UniProt P05455 225-408).
T1 sequence: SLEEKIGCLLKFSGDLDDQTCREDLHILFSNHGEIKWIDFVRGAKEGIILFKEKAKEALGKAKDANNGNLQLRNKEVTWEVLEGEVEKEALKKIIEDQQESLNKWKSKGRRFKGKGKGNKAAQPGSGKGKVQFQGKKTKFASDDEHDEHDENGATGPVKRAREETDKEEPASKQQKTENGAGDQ

The target in a further data set is T2, La RRM1-RRM2-SBM (Homo sapiens, UniProt P05455 105-359).
T2 sequence: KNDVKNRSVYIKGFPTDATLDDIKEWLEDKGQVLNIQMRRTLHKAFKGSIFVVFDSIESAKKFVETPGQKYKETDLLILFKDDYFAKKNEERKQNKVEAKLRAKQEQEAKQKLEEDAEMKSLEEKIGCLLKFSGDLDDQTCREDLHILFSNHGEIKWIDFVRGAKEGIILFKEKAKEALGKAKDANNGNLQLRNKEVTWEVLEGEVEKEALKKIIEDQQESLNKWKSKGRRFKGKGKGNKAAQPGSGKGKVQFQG

The next data set deals with T3, La RRM2-SBM (Homo sapiens, UniProt P05455 225-359).
T3 sequence: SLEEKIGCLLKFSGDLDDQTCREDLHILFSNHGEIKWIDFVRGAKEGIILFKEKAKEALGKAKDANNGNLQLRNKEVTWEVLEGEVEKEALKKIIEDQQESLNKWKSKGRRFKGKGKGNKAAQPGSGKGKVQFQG

In a further data set the target is T4, La RRM1-RRM2-Cter (Homo sapiens, UniProt P05455 105-408).
T4 sequence: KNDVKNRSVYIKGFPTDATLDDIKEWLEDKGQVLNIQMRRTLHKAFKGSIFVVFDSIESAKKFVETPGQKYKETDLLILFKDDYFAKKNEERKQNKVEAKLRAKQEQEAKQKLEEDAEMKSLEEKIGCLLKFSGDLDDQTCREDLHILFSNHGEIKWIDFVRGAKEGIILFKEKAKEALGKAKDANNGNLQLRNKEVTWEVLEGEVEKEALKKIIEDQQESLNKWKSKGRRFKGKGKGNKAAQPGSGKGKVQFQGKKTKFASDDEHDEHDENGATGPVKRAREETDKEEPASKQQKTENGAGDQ

B1: HCV-IRES domain IV (structured_RNA)
RNA: AGACCGUGCACCAUGAGCACGAAUCCA
One may read the Kd as the equilibrium constant for the complex coming apart. Consider B1, for which the Kd with La RRM2-Cter came out at 15.3 ± 1.49 µM; with La RRM1-RRM2-SBM it was 10.3 ± 2.04 µM; with La RRM2-SBM it was 28.2 ± 1.21 µM; in the data set with La RRM1-RRM2-Cter, 9.76 ± 1.1 µM.
